# ± gives the half width of the 95% confidence interval.
# Assay: folding stability dG unfold from chymotrypsin proteolysis; higher = more stable
# How it was run: (§1)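 How resistant each design was to proteolysis was captured as K50, inferred by Bayesian fitting of sequencing counts. Unfolding free energy was then derived relative to a sequence-predicted unfolded-state K50 and a shared folded-state K50, per protease or combined. Digestion used trypsin and chymotrypsin at 11 threefold-diluted concentrations plus a no-protease condition, on mini-proteins under 80 residues without cysteine in a PA-tagged cDNA display construct. Designs were kept only when AlphaFold2 dimer inter-PAE was above 15.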
row,Sequence,folding stability dG unfold [kcal/mol]
1,SAGGGRPILFRPPDGSVEVVPVPADATLEEVKEVAEAAAAARGYTELSFDPATETVTIDLGGDRVEAASAGG [r13_572_JUSTAS],0.824 ± 0.024
2,SAGGSAGGSAGGEKIVLKVKPGDTVEVNGKTIKVPPGALITFDKKTKKLTIEPLSPEDLSAGGSAGGSAGGS [r10_353_TrROS_Hall],1.14 ± 0.26
3,SAGGMQALLRLPDTDEVVVLPDELLEAIASGDPERLAALPPEVREVISNVAELVVVPPPDGDPRPEGGSAGG [r13_233_TrMRF],0.496 ± 0.15
4,SAGGSAGGSAGMTIEELKAKGYKVEVVKLPDSPEEVVVVTYPVPPGGIEKSVIPLSEVKLSAGGSAGGSAGG [r17_311_JUSTAS],0.601 ± 0.048
5,SAGGKIKIRNPKTGLIVEVLEYNPETGKFKVKVTFPDGSVEEKEFPGSLEDLIEWLESEGFPFEVEGSAGGS [r16_748_TrMRF],3.72 ± 0.13
6,SAGGSSMKTSETTDPANGTPVRVETSIDPATNKVTTTVTTPDGTTVGSGTITIPPESSVTTTTTTTTPASAG [r5_747_JUSTAS],1.49 ± 0.091
7,SAGGSPEVKVLLFYDPATGERVVVVVTYDPATGEKKVLVFVESRPELVELVKKLLEDLGYEVEVVPSAGGSA [r2_30_TrMRF],3.82 ± 0.16
8,MPARVEARRIPDEPRLEVVVDFPGYRVVVRVDEGGRVEVEVVWEENVGPEERAAAEEAAEAFAREVAEALGS [r1_468_TrMRF],1.05 ± 0.039
9,SAGGMTITFTLEFDLEDDRRITVTATIDPTGDDVLITVRVELTLPNGEKLEFTATIVLPPGAHPDELISAGG [r13_3_TrMRF],5.25 ± 0.24
10,SAGMVKTVTLSREEVEKLVRELGRSPEEMTLEEFAERLEELFPGATVTVTVDTKTGTYTITITFPPSLASAG [r5_264_JUSTAS],4.16 ± 0.085
11,SAGGVPLLSAELLTTDETGNRTYRLVYYDPSTGKVYEVVVSQPFPTGDFNPFLFTASSLEEALELVTSSAGG [r13_26_TrMRF],2.81 ± 0.038
12,SAGGSAGGSAGKDKGQKEVPEINIRIEPVNFHWEYDKGNGKPKSIHFMFKIRYPNGREITSAGGSAGGSAGG [r11_890_TrROS],0.674 ± 0.29
13,SAGPEPVIRLAREHLERGEVLRITLTGRSGVPRTFLLRPEDILWFFDNLPDPSDIASVDIETYPLGYPPSAG [r5_956_TrMRF],3.352 ± 0.016
14,SKKKIEIEVIDLKTGKTETIEADTLEEALEEIKKNAPPGSTVIVRIKLPDGSVLEITLEIKPEKVTEKEKSA [r9_482_TrROS_Hall],1.37 ± 0.087
15,SAGGSAGGSAGGGKEISLDELIDIAIELGYPGTIEDLLADPNIKIYPNPYDDKPVILIPDSAGGSAGGSAGG [r7_180_TrMRF],0.576 ± 0.053
16,SAGGSAPESVKPPVVVVTLVLEFPDGRKLTIPVAHEELAEALEVALALPLALEHDTKLVKVEKANVSAGGSA [r15_140_TrMRF],0.736 ± 0.16
17,SAGGSAGGSAGGWDEIKDILREAGWPVKNVEVQWIPNPENGKPMNSITVSYPDGKKWTIMSAGGSAGGSAGG [r7_337_TrROS],0.0542 ± 0.19
18,SAGGKEVKITFKAPKEEAVPKVKKAAEEYGVTVKSIDYDPETGKVTVVVDDSVPEEKVKEAFEKVLKSAGGS [r8_338_TrMRF],1.75 ± 0.082
19,SAGGSAGGSAGGSDDPDGKPKPQIPPIKVEPIPIKDPNGWSIEIYYFPWNGMLIISFYNSAGGSAGGSAGGS [r4_305_TrROS],4.34 ± 0.12
20,SAGGSAGGSAGGGKKKVTVEFVIKVPKNSKPVFFTIKGGIKVEFYPIPDTNYALVKVTFGSAGGSAGGSAGG [r7_796_TrMRF],3.92 ± 0.12
21,FTMDEMKELADNIADNLAKEDGYKIKSVNIDATIPIPVYMKVRPDPNGEPRWEMHWMPIKVKINVEIKPPNS [r1_91_TrROS],2.55 ± 0.09

# Assay: folding stability dG unfold (combined trypsin and chymotrypsin); higher = more stable
# How it was run: as §1
row,Sequence,folding stability dG unfold [kcal/mol]
1,SAGGSAGGSMTLKVTLPNGKVIELPLPEELENIPAETIAKLLGEENVRLELYSPDGVPYDFGASAGGSAGGS [r12_411_TrMRF],1.03 ± 0.099
2,SAGGSAEQTATIESVEYNEETGELTIRIRLENGEEVEITVKPDGTITITLPPGAKITEIEIERLPPSAGGSA [r15_959_TrROS_Hall],2.53 ± 0.35
3,SAGTIRGLPAEFAKRIANELAQNGYEIVAVTVTYDPPNGTFKIEVEMRPPNGKVREHDIEIQVRLPPDDSAG [r5_985_TrROS],2.45 ± 0.17
4,SAGGSAGGSVYSAKSPDGYTITISNGGKPITLPVSDPAKAASLTLKTPDGKTATVTIVPASLASAGGSAGGS [r12_730_JUSTAS],-0.216 ± 0.17
5,SAGWQTIDFPIPPGEDIPIPIGNRPLRIQVDPNKNKYEIFNPFLGYRISIDVDPGAGWIKITIEPLKPPSAG [r5_302_TrROS],3.98 ± 0.26
6,SAGGSAEKKVLKVKVEVVSVEVNEDGTVTVTAKVTFEDGLELTVTVTFDKETGELTIEVELRPLPPSAGGSA [r15_401_TrROS_Hall],3.13 ± 0.15
7,SAGGMKTFEKPMTAEEVMALLEEIAKKGNVNVTIETEGKTYEVDPSKAKPIPPENVTAKITITELPKSAGGS [r16_628_JUSTAS],0.186 ± 0.28
8,SAGGSSIKIPNPNGYEIEIEVTPDRAKIKWRMPGKEQEQEFPPGEDVTIRFPDGMPLTIKIPPPGESAGGSA [r2_57_TrROS],0.424 ± 0.13
9,SAGGSAGGSAGGATAEELAAALKELEAKLKALLEKPEEVEVEVEVKAPEVEEVDGKLVLLSAGGSAGGSAGG [r7_44_TrROS_Hall],0.145 ± 0.11
10,SAGKPIDLGEVEVEISPVSYDPETGKLTYQARLVTKDGKPIYTASVTYDPKTGKFSISVTPIGYDPSAFSAG [r5_200_TrMRF],2.2 ± 0.14
11,SAGGSAGGKNWRTIPFMIWIPPGAPPIEFEIPLPDGWKVEIEISVVRNPDGWYFIMFSITVQPDSAGGSAGG [r6_510_TrROS],3.81 ± 0.22
12,SAGGSAGGGRYLVLIEFENGFPLAYVFPSPEDVVEHTRLLEERLGYPIKRIEVYKIDPNGKAYASAGGSAGG [r6_162_TrMRF],2.53 ± 0.086
13,SEDTVTIEVRAFPVKDKNGKPRFYVSIEFGNGPVSYPIPGLPEGMKEGETFTIEIPPENIKKVDISIMPYSA [r9_769_TrROS],1.97 ± 0.19
14,SAGGKKIVLFVGPPELVEELKKAYPDLPFVPIPVEVLENPEPAAEIIKELKEKGYEVVVYNFPDLKESAGGS [r8_376_TrMRF],2.21 ± 0.071
15,SNNKRITIEIPFPMPAEQARNFMEAFGIKKIEYEKHDDPGYYRVKYTVPDDNVTIDIHIFPPPVPPGQKPSA [r9_1090_TrROS],1.67 ± 0.13
16,SLTAEEAAANPELAARLLALPPVPPFPVELLFVNPETRAVLPAKATVYQFPNTWLVLFPENGAALPVPGGSA [r9_548_TrMRF],1.1 ± 0.099
17,SAGLEVVKKLAEELGFPVEILRVEYDPETGELTFEAVARPKDGKTRRVRIRIRVPKESDEVEIELEYFDSAG [r5_929_TrMRF],4.51 ± 0.1
18,SAGGSAGGSAGDGINFTLDIPIEGDFELRDVYLTPLEPENRRAFFLLRYKDGPVLLTLPLSAGGSAGGSAGG [r11_1013_TrMRF],1.09 ± 0.1
19,SAGGSGMSFSITEEVVIPTPGPRTLLLLKTEGDIIIVERDGERLRPVKTVPRKEVPEEPEKLIEELSAGGSA [r2_133_JUSTAS],-0.434 ± 0.12
20,SAGGSAGGSWEWITAEEALKRAREENPPGKPIEFHFEDPWYFTVRFDGEDPNDVTIEWVPLEKSAGGSAGGS [r12_648_TrROS],1.4 ± 0.2
21,SAGGSAGGMVTSSVSALPDGSYRLTITYPDGTVLTFEFDSEEEVAALLAELAEALPADAAVPLASAGGSAGG [r6_464_JUSTAS],1.71 ± 0.065

row,Sequence,folding stability dG unfold [kcal/mol]
1,SAGGGRPILFRPPDGSVEVVPVPADATLEEVKEVAEAAAAARGYTELSFDPATETVTIDLGGDRVEAASAGG [r13_572_JUSTAS],0.426 ± 0.049
2,SAGGSAGGSAGGEKIVLKVKPGDTVEVNGKTIKVPPGALITFDKKTKKLTIEPLSPEDLSAGGSAGGSAGGS [r10_353_TrROS_Hall],1.11 ± 0.19
3,SAGGMQALLRLPDTDEVVVLPDELLEAIASGDPERLAALPPEVREVISNVAELVVVPPPDGDPRPEGGSAGG [r13_233_TrMRF],0.614 ± 0.15
4,SAGGSAGGSAGMTIEELKAKGYKVEVVKLPDSPEEVVVVTYPVPPGGIEKSVIPLSEVKLSAGGSAGGSAGG [r17_311_JUSTAS],0.375 ± 0.052
5,SAGGKIKIRNPKTGLIVEVLEYNPETGKFKVKVTFPDGSVEEKEFPGSLEDLIEWLESEGFPFEVEGSAGGS [r16_748_TrMRF],3.37 ± 0.16
6,SAGGSSMKTSETTDPANGTPVRVETSIDPATNKVTTTVTTPDGTTVGSGTITIPPESSVTTTTTTTTPASAG [r5_747_JUSTAS],1.21 ± 0.11
7,SAGGSPEVKVLLFYDPATGERVVVVVTYDPATGEKKVLVFVESRPELVELVKKLLEDLGYEVEVVPSAGGSA [r2_30_TrMRF],3.63 ± 0.11
8,MPARVEARRIPDEPRLEVVVDFPGYRVVVRVDEGGRVEVEVVWEENVGPEERAAAEEAAEAFAREVAEALGS [r1_468_TrMRF],0.839 ± 0.099
9,SAGGMTITFTLEFDLEDDRRITVTATIDPTGDDVLITVRVELTLPNGEKLEFTATIVLPPGAHPDELISAGG [r13_3_TrMRF],5.53 ± 0.85
10,SAGMVKTVTLSREEVEKLVRELGRSPEEMTLEEFAERLEELFPGATVTVTVDTKTGTYTITITFPPSLASAG [r5_264_JUSTAS],3.93 ± 0.23
11,SAGGVPLLSAELLTTDETGNRTYRLVYYDPSTGKVYEVVVSQPFPTGDFNPFLFTASSLEEALELVTSSAGG [r13_26_TrMRF],2.7 ± 0.038
12,SAGGSAGGSAGKDKGQKEVPEINIRIEPVNFHWEYDKGNGKPKSIHFMFKIRYPNGREITSAGGSAGGSAGG [r11_890_TrROS],1.15 ± 0.28
13,SAGPEPVIRLAREHLERGEVLRITLTGRSGVPRTFLLRPEDILWFFDNLPDPSDIASVDIETYPLGYPPSAG [r5_956_TrMRF],3.01 ± 0.078
14,SKKKIEIEVIDLKTGKTETIEADTLEEALEEIKKNAPPGSTVIVRIKLPDGSVLEITLEIKPEKVTEKEKSA [r9_482_TrROS_Hall],1.21 ± 0.22
15,SAGGSAGGSAGGGKEISLDELIDIAIELGYPGTIEDLLADPNIKIYPNPYDDKPVILIPDSAGGSAGGSAGG [r7_180_TrMRF],1.25 ± 0.086
16,SAGGSAPESVKPPVVVVTLVLEFPDGRKLTIPVAHEELAEALEVALALPLALEHDTKLVKVEKANVSAGGSA [r15_140_TrMRF],0.558 ± 0.15
17,SAGGSAGGSAGGWDEIKDILREAGWPVKNVEVQWIPNPENGKPMNSITVSYPDGKKWTIMSAGGSAGGSAGG [r7_337_TrROS],0.0642 ± 0.098
18,SAGGKEVKITFKAPKEEAVPKVKKAAEEYGVTVKSIDYDPETGKVTVVVDDSVPEEKVKEAFEKVLKSAGGS [r8_338_TrMRF],1.75 ± 0.21
19,SAGGSAGGSAGGSDDPDGKPKPQIPPIKVEPIPIKDPNGWSIEIYYFPWNGMLIISFYNSAGGSAGGSAGGS [r4_305_TrROS],4.26 ± 0.2
20,SAGGSAGGSAGGGKKKVTVEFVIKVPKNSKPVFFTIKGGIKVEFYPIPDTNYALVKVTFGSAGGSAGGSAGG [r7_796_TrMRF],3.52 ± 0.15
21,FTMDEMKELADNIADNLAKEDGYKIKSVNIDATIPIPVYMKVRPDPNGEPRWEMHWMPIKVKINVEIKPPNS [r1_91_TrROS],2.55 ± 0.36

# — the supplement of paper PMC12764529
